Data published in patent US20210261965A1.

Target: Phosphatidylserine decarboxylase (PSD/PISD), purified
Assay: microscale thermophoresis (MST), fluorescently labeled purified SMAC, Monolith-NT115

Phosphatidylserine decarboxylase (PSD/PISD), purified, sequence (B1AKM7 whole entry): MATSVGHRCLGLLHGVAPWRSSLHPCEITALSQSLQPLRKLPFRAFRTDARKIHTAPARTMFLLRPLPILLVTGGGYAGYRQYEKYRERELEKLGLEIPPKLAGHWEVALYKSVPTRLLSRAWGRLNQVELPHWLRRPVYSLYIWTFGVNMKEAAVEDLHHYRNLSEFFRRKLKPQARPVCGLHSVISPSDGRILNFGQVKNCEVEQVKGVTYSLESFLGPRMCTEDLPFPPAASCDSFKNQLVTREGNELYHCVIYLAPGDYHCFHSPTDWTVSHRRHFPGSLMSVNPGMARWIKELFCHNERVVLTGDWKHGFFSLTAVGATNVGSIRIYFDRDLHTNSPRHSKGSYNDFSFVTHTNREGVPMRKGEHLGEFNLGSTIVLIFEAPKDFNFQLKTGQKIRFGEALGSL

Kd: 100 nM
Substance: purified SMAC/Diablo (second mitochondria-derived activator of caspase/direct inhibitor of apoptosis-binding protein with low pI) (from UniProt Q9NR28 56-239)
